Here are results for nine molecules from patent US20160376372A1 (VACCINEX, published 2016).

Experiment [1] has as its target human CD20 antigen (human) (UniProt P11836). The experiment can be described thus: flow cytometry, Daudi cells (CD20 positive).
Experiment [2] shares this target. The experiment can be described thus: flow cytometry, EHEB cells (CD20 positive).
For experiment [3] the target is unchanged. The experiment in a line: flow cytometry, EB1 cells (CD20 positive).
For experiment [4] the target is unchanged. The experiment in a line: flow cytometry, Daudi cells (CD20 positive). The source holds these as a separate data set.
Experiment [5] addresses T1, human CD20 antigen (human, UniProt P11836 1-297).
T1 construct: whole, on cells; also called Bp35; B1
T1 sequence (looked up): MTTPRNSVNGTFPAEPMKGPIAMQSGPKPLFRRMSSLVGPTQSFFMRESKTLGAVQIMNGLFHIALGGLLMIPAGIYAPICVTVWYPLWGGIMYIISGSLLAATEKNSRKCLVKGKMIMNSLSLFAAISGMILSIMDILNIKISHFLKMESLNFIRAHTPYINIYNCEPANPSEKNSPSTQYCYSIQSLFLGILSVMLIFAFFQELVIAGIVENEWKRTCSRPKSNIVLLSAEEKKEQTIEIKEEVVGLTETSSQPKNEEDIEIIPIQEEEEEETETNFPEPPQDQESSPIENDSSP
The experiment in a line: flow cytometry, Daudi cells (CD20 positive). The method, then:
(§1) Binding specificity was assessed by Fluorometric Microvolume Assay Technology (FMAT, Applied Biosystems 8200 Cellular Detection System) and Flow Cytometry, which tabulates Mean Fluorescence Intensities (MFI) of staining on CD20 positive (CD20⁺) and CD20 negative cell lines.

Experiment [6] concerns the target T1, human CD20 antigen. The experiment can be described thus: flow cytometry, EHEB cells (CD20 positive). How it is done: (§2) Binding specificity was assessed by Flow Cytometry, which tabulates Mean Fluorescence Intensities (MFI) of staining on CD20 positive (CD20⁺) and CD20 negative cell lines.
Experiment [7] concerns the target T1, human CD20 antigen. The experiment can be described thus: flow cytometry, EB1 cells (CD20 positive). How it is done:
as §1

The target of experiment [8] is T1, human CD20 antigen. The experiment can be described thus: flow cytometry, CHO.CD20 cells (CD20 positive). The method, then: as §2
Experiment [9] addresses T1, human CD20 antigen. The experiment in a line: flow cytometry, Daudi cells (CD20 positive). The method, then: as §2
The source holds these as a separate data set.

In the case of mAb 271 (rituximab-sequence antibody), the Mean Fluorescence Intensity (MFI) in experiment [1] was 145 MFI; in experiment [2], 130 MFI; in experiment [3] it was 429 MFI; in experiment [4], 941 MFI.

B1: optimized humanized mAb 1237 (antibody, V domains shown)
VH: QVQLVQSGAEVKKPGSSVKVSCKASGYTFTSYNMHWVRQAPGQGLEWIGAIYPGNGDTSYNQKFKGKATITADKSTSTAYMELSSLRSDDTAVYYCARSTYYAGDWNFNNWGQGTLVTVSS
VL: DIQMTQSPSSLSASVGDRVTITCRASSSVSYIHWFQQKPGKAPKPLIYAASSLQSGVPSRFSGSGSGTDYTLTISSLQPEDFATYYCQQWTSNPPTFGGGTKLEIK
notes: detected with anti-human Ig Fc
As for B1, the “Mean Fluorescence Intensity (MFI)” value with human CD20 antigen [5] was found to be 132 MFI; with human CD20 antigen [6], 161 MFI; with human CD20 antigen [7], 395 MFI; with human CD20 antigen [8], 106 MFI; in the experiment with human CD20 antigen [9], 1370 MFI.

B2: optimized humanized mAb 1652 (antibody, V domains shown)
VH: QVQLVQSGAEVKKPGSSVKVSCKASGYTFTSYNMHWVRQAPGQGLEWIGAIYPGNGATSYNQKFKGKATITADKSTSTAYMELSSLRSDDTAVYYCARSTYYAGDWNFNNWGQGTLVTVSS
VL: DIQMTQSPSSLSASVGDRVTITCRASSSVSYIHWFQQKPGKAPKPLIYAASSLQSGVPSRFSGSGSGTDYTLTISSLQPEDFATYYCQQWQSNPPTFGGGTKLEIK
Take B2: the “Mean Fluorescence Intensity (MFI)” value worked out at 529 MFI in the experiment with human CD20 antigen [6], 135 MFI with human CD20 antigen [8] and 1420 MFI with human CD20 antigen [9].

B3: optimized humanized mAb 1238 (antibody, V domains shown)
VH: QVQLVQSGAEVKKPGSSVKVSCKASGYTFTSYNMHWVRQAPGQGLEWIGAIYPGNGDTSYNQKFKGKATITADKSTSTAYMELSSLRSDDTAVYYCARSTYYAGDWNFNDWGQGTLVTVSS
VL: DIQMTQSPSSLSASVGDRVTITCRASSSVSYIHWFQQKPGKAPKPLIYAASSLQSGVPSRFSGSGSGTDYTLTISSLQPEDFATYYCQQWTSNPPTFGGGTKLEIK
notes: as for B1
For B3, the “Mean Fluorescence Intensity (MFI)” value with human CD20 antigen [5] is 114 MFI; with human CD20 antigen [7] it was 389 MFI.

B4: optimized humanized mAb 1236 (antibody, V domains shown)
VH: QVQLVQSGAEVKKPGSSVKVSCKASGYTFTSYNMHWVRQAPGQGLEWIGAIYPGNGDTSYNQKFKGKATITADKSTSTAYMELSSLRSDDTAVYYCARSTYYGGDWNFNNWGQGTLVTVSS
VL: DIQMTQSPSSLSASVGDRVTITCRASSSVSYIHWFQQKPGKAPKPLIYAASSLQSGVPSRFSGSGSGTDYTLTISSLQPEDFATYYCQQWTSNPPTFGGGTKLEIK
notes: as for B1
For B4, the figures for the “Mean Fluorescence Intensity (MFI)” value with human CD20 antigen [5] and with human CD20 antigen [7] were 145 MFI and 409 MFI, respectively.

B5: optimized humanized mAb 1692 (antibody, V domains shown)
VH: QVQLVQSGAEVKKPGSSVKVSCKASGYTFTSYNMHWVRQAPGQGLEWIGAIYPGNGDTSYNQKFKGKATITADKSTSTAYMELSSLRSDDTAVYYCARSTYYAGDWNFGNWGQGTLVTVSS
VL: DIQMTQSPSSLSASVGDRVTITCRASSSVSYIHWFQQKPGKAPKPLIYAASSLQSGVPSRFSGSGSGTDYTLTISSLQPEDFATYYCQQWTSNPPTFGGGTKLEIK
For the molecule B5, the entries for the “Mean Fluorescence Intensity (MFI)” value in the experiment with human CD20 antigen [6], with human CD20 antigen [8] and with human CD20 antigen [9] were 450 MFI, 137 MFI and 1670 MFI, respectively.

B6: optimized humanized mAb 1589 (antibody, V domains shown)
VH: QVQLVQSGAEVKKPGSSVKVSCKASGYTFTSYNMHWVRQAPGQGLEWIGAIYPGNGATSYNQKFKGKATITADKSTSTAYMELSSLRSDDTAVYYCARSTYYAGDWNFNNWGQGTLVTVSS
VL: DIQMTQSPSSLSASVGDRVTITCRASSSVSYIHWFQQKPGKAPKPLIYAASSLQSGVPSRFSGSGSGTDYTLTISSLQPEDFATYYCQQWTSNPPTFGGGTKLEIK
In the case of B6, the “Mean Fluorescence Intensity (MFI)” value with human CD20 antigen [6] came out at 345 MFI; in the experiment with human CD20 antigen [8], 140 MFI; in the experiment with human CD20 antigen [9], 1030 MFI.

B7: optimized humanized mAb 1588 (antibody, V domains shown)
VH: QVQLVQSGAEVKKPGSSVKVSCKASGYTFTFYNMHWVRQAPGQGLEWIGAIYPGNGDTSYNQKFKGKATITADKSTSTAYMELSSLRSDDTAVYYCARSTYYAGDWNFNNWGQGTLVTVSS
VL: DIQMTQSPSSLSASVGDRVTITCRASSSVSYIHWFQQKPGKAPKPLIYAASSLQSGVPSRFSGSGSGTDYTLTISSLQPEDFATYYCQQWTSNPPTFGGGTKLEIK
In the case of B7, the “Mean Fluorescence Intensity (MFI)” value in the experiment with human CD20 antigen [6] stood at 338 MFI; in the experiment with human CD20 antigen [8], 140 MFI; with human CD20 antigen [9] it was 2070 MFI.

B8: optimized humanized mAb 1590 (antibody, V domains shown)
VH: QVQLVQSGAEVKKPGSSVKVSCKASGYTFTSYNMHWVRQAPGQGLEWIGAIYPGNGLTSYNQKFKGKATITADKSTSTAYMELSSLRSDDTAVYYCARSTYYAGDWNFNNWGQGTLVTVSS
VL: DIQMTQSPSSLSASVGDRVTITCRASSSVSYIHWFQQKPGKAPKPLIYAASSLQSGVPSRFSGSGSGTDYTLTISSLQPEDFATYYCQQWTSNPPTFGGGTKLEIK
Take B8: the “Mean Fluorescence Intensity (MFI)” value worked out at 429 MFI with human CD20 antigen [6], 135 MFI with human CD20 antigen [8] and 1630 MFI with human CD20 antigen [9].
